# According to patent US12559863B2, “Macrocyclic modulators of disease associated protein misfolding and aggregation” (RESQ BIOTECH, priority 2017, dated 2026):
# What was measured:
# SOD1(A4V) [1] = molecular target: T1, SOD1(A4V) (Homo sapiens, UniProt P00441, A5V); test: Dynamic light scattering of SOD1(A4V) with cyclic peptide; format: biochemical; conditions: room temperature, 60 d
# T1 construct: polyHis; made in house; host or cells: E. coli Origami 2(DE3)
# Protocol: (§1) SOD1 or mutants thereof were overexpressed from the appropriate pET-SOD1 or PASK-SOD1 vectors in E. coli Origami 2(DE3) cells in LB medium containing 50 μg/mL kanamycin (for pET-SOD1) or 100 μg/mL ampicillin (for pASK-SOD1), 200 μM CuCl2, and 200 μM ZnCl2 by the addition of 0.01 mM IPTG (for pET-SOD1) or 0.2 μg/mL anhydrotetracycline (aTc) (for pASK-SOD1), either at 37° C. for 2-3 h or at 18° C. for about 16 h. Origami 2(DE3) cells were utilized in order to provide an oxidizing cytoplasmic environment in order to promote correct formation of disulfide bonds, which are required for proper SOD1 folding and function. Under these conditions, bacterially produced SOD1 is produced in dimeric and enzymatically active form, while it simultaneously co-exists with misfolded, soluble and insoluble SOD1 oligomeric/aggregated species (FIG. 3C). Thus, the acquired protein is found in a state that resembles the conditions encountered in human cells under stressful or pathogenic conditions. The appearance of misfolded SOD1 oligomers/aggregates is enhanced with increasing incubation temperatures. […]
# The sizes of the SOD1 particles were measured using a Zetasizer NanoZS90 (Malvern) instrument. […]
# SOD1(A4V) [2] = molecular target: T1, SOD1(A4V); test: Filter retardation assay of SOD1(A4V); format: biochemical; conditions: 25 d at 37° C.
# Protocol: as §1
# [3] = tested on: HEK293 cells transiently expressing SOD1(A4V)-GFP; test: SOD1 aggregation and viability measurements in HEK293 cells; format: cell-based, human; conditions: 5 μM SOD1C5-4; compared to untreated cells
# Protocol: Human embryonic kidney (HEK) 293 cells were transfected using a Nucleofector (Amaxa) following the manufacturer's protocol. 6 ug DNA (SOD1 or SOD1(A4V) cloned into the pEGFP-N3 plasmid vector) were used per 2×10^6 cells and 5 μM synthetic SOD1C5-4 was added, where appropriate, before plating. Transfected cells were sorted 18 h later on a FACSAria to isolate GFP-positive clones. […] Collected cells were plated onto a 24-well plate at a density of 50,000 cells/well. Microscopy analysis was performed under an inverted microscope on day 1 and day 5 in culture after sorting. Cell counts are the average number of viable GFP-fluorescing cells of two areas per triplicate of wells of 24-well plates (magnification 20×). Cell counts are presented as percentage of viability of SOD1-overxoressing cell. As aggregate-positive cells are counted the fluorescing inclusion body-positive cells. Again, two areas per triplicate of wells of 24-well plate are averaged (magnification 20×). Aggregate-positive cells are presented as percentage of the total viable GFP-fluorescing cells.
# Aβ42 = molecular target: T2, Aβ42 (Homo sapiens, UniProt P05067); test: Circular dichroism of Aβ42 with cyclic peptide; format: biochemical; conditions: 50 μM Aβ, 33° C., 30 d
# T2 construct: one of the secondary products yields a 42-amino-acid-long peptide (Aβ42); purchased Eurogentec, Belgium; host or cells: chemical synthesis
# Protocol: Synthetic Aβ40 and Aβ42 peptides were gently dissolved without vortexing in doubly deionized water to a final concentration of 100 μM. These solutions were then diluted by PBS addition (10 mM, pH 7.33) to achieve a final Aβ concentration of 50 μM.
# Appropriate amounts of synthetic cyclic peptides were added to either 40 μM SOD1(A4V) or 50 μM Aβ solutions at the desired cyclic peptide:target protein molar ratio. SOD1(A4V) structural changes were monitored for 90 d at 25° C., under quiescent conditions. Aβ structural changes were monitored for 30 d at 33° C. under quiescent conditions. CD spectra in the range 190-260 nm were recorded on a JASCO J-715 spectropolarimeter (Jasco Co., Japan) using quartz cuvettes with 1 mm path length. Each reported spectrum is the average of three scans at a rate of 100 nm·min^−1 and a resolution of 0.5 nm.
# SOD1(A4V) [4] = molecular target: T1, SOD1(A4V); test: Thioflavin T staining of SOD1(A4V); format: biochemical; conditions: 90 d at 25° C.
# Protocol: as §1, with “conditions.” for “conditions. The appearance of misfolded SOD1 oligomers/aggregates is enhanced with increasing incubation temperatures.”
# 40 μM SOD1(A4V) solutions, aged for 90 d at 25° C., with or without the selected synthetic peptides, were diluted to 10 μM with PBS. […] The mixture was agitated adequately by pipetting and immediately thereafter, fluorescence was monitored with excitation at 440 nm (EM slit=2.5 nm, PMT Voltage 700 V, response 0.4 s) using a HITACHI F-2500 (Japan) spectrofluorometer.
# T1 sequence (P00441 whole entry A5V): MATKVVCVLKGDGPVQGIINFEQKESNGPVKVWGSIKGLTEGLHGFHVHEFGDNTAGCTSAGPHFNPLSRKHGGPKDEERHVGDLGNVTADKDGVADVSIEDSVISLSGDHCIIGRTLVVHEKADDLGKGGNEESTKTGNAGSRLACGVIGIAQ
substance,measurement,setting,value
cyclo-TWSVW (cyclic) [SOD1C5-4],size of oligomeric/aggregated SOD1(A4V) species (DLS),SOD1(A4V) [1],markedly smaller sizes
same,"formation of large, amyloid-like SOD1(A4V) aggregates by filter retardation assay",SOD1(A4V) [2],dramatically decreased
same,fluorescence of HEK293 cells expressing SOD1(A4V)-GFP,[3],higher fluorescence
same,inclusions comprising aggregated SOD1(A4V)-GFP,[3],fewer inclusions comprising aggregated SOD1(A4V)-GFP
same,viability of HEK293 cells expressing SOD1(A4V)-GFP,[3],higher viability
same,effect on aggregation process of Aβ42 (CD),Aβ42,did not have any effect
same,"formation of large, amyloid-like SOD1(A4V) aggregates by ThT staining",SOD1(A4V) [4],dramatically decreased
